Legend:
IgG1 Fc (counter target) [1] = biological target: T1, IgG1 Fc (counter target) (Homo sapiens, UniProt P01857-1 P01857-1:100-330); test: SPR; no interaction observed; conditions: tags: AcroBiosystems; chain copies: 2; label: 5'-biotin-TEG
Protocol: Binding affinity measurements with the most interesting anti-CD3 aptamers derived from the core sequence were performed using a BIAcore T200 instrument (GE Healthcare) as already described in Example 4. To analyze interactions between aptamers and CD3 proteins, biotinylated aptamers were immobilized at a lower density than in Example 4 (100-500 RU) on Series S Sensor chips SA (GE Healthcare) according to manufacturer's instructions (GE Healthcare). Mouse and Cynomolgus CD3 ε/δ were purchased from AcroBiosystems. For human proteins, the highest concentration used was 100 nM and 1 μM for mouse and cynomolgus antigens. Other concentrations were obtained by 3-fold dilutions.
Table 8 below provides a summary of KD values obtained from surface plasmon resonance measurements. […] Variants of the core sequence identified in cell binding assays (CELTIC_core_12, CELTIC_core_24, CELTIC_core_29, CELTIC_core_40 and CELTIC_core_42) were all confirmed to have better affinities than the unmodified aptamer with human CD3 ε/γ. As already observed in Example 4, the affinities were in general slightly lower with CD3 ε/δ which is a consequence of the SELEX strategy that included more rounds on the CD3 ε/γ isoform. None of these sequences did bind to the Fc region of human IgG1.

[2] = biological target: T2, CD3 epsilon/gamma heterodimer (Homo sapiens, UniProt P07766;P09693 P07766:23-126,P09693:23-116); test: SPR; steady state; kinetic 65.2 nM (Table 6); conditions: tags: C-terminal human IgG1 Fc fusion, AcroBiosystems; chain copies: heterodimer 1:1 (inferred); label: 5'-biotin-TEG
Protocol: (§1) Binding affinity measurements were performed using a BIAcore T200 instrument (GE Healthcare). To analyze interactions between aptamers and CD3 proteins, 1000 Resonance Units of biotinylated aptamers were immobilized on Series S Sensor chips SA (GE Healthcare) according to manufacturer's instructions (GE Healthcare). SELEX buffer was used as the running buffer. The interactions were measured in the “Single Kinetics Cycle” mode at a flow rate of 30 μl/min and by injecting different concentrations of human CD3 ε/γ, CD3 ε/δ, IgG1 Fc and mouse CD3 ε/δ (Sino Biological). The highest protein concentration used was 100 nM. Other concentrations were obtained by 3-fold dilution. All kinetic data of the interaction were evaluated using the BIAcore T200 evaluation software. Table 3 below provides a summary of KD values obtained from surface plasmon resonance measurements.

[3] = biological target: T3, CD3 epsilon/delta heterodimer (Homo sapiens, UniProt P07766;P04234 P07766:23-126,P04234:22-105); test: SPR; steady state; kinetic 3.2 uM (Table 6); conditions: tags: C-terminal human IgG1 Fc fusion, AcroBiosystems; chain copies: heterodimer 1:1 (inferred); label: 5'-biotin-TEG
Protocol: as §1

IgG1 Fc (counter target) [4] = biological target: T1, IgG1 Fc (counter target); test: SPR; no interaction observed; conditions: tags: AcroBiosystems; chain copies: 2; label: 5'-biotin-TEG; remark: listed apart in the source
Protocol: as §1

IgG1 Fc (counter target) [5] = biological target: T1, IgG1 Fc (counter target); test: SPR; NA, no interaction; Table 3 prints 56.3 mM; conditions: tags: AcroBiosystems; chain copies: 2; label: 5'-biotin-TEG
Protocol: as §1

[6] = biological target: T3, CD3 epsilon/delta heterodimer; test: SPR; steady state; kinetic 3.7 nM (Table 3), 9.9 nM (Table 6), 217 pM (Table 8); conditions: tags: C-terminal human IgG1 Fc fusion, AcroBiosystems; chain copies: heterodimer 1:1 (inferred); label: 5'-biotin-TEG
Protocol: as §1

[7] = biological target: T2, CD3 epsilon/gamma heterodimer; test: SPR; steady state; kinetic fits 5 nM (Table 3), 5.2 nM (Table 6), 119 pM (Table 8), 156 nM steady state (Table 9); SELEX buffer Mg Ca; conditions: tags: C-terminal human IgG1 Fc fusion, AcroBiosystems; chain copies: heterodimer 1:1 (inferred); label: 5'-biotin-TEG
Protocol: as §1

IgG1 Fc (counter target) [8] = biological target: T1, IgG1 Fc (counter target); test: SPR; no interaction observed; printed CELTIC_CD3_22; conditions: tags: AcroBiosystems; chain copies: 2; label: 5'-biotin-TEG
Protocol: as §1

[9] = biological target: T2, CD3 epsilon/gamma heterodimer; test: SPR; kinetic, DPBS; conditions: tags: C-terminal human IgG1 Fc fusion, AcroBiosystems; chain copies: heterodimer 1:1 (inferred); label: 5'-biotin-TEG
Protocol: as §1
(§2) Binding of anti-CD3 RNA aptamers to each of purified recombinant human CD3 ε/γ and CD3 ε/δ proteins was measured using surface plasmon resonance. Binding studies were performed generally as described in Example 5 except that SELEX buffer was replaced by DPBS. The highest protein concentration used was 300 nM. Other concentrations were obtained by 3-fold dilution. Binding to hIgG1 Fc was used as control. Binding to murine CD3 do (mCD3 c/S) was also measured.

IgG1 Fc (counter target) [10] = biological target: T1, IgG1 Fc (counter target); test: SPR; NA, DPBS; conditions: tags: AcroBiosystems; chain copies: 2; label: 5'-biotin-TEG
Protocol: as §1, §2

[11] = biological target: T3, CD3 epsilon/delta heterodimer; test: SPR; NA, DPBS; conditions: tags: C-terminal human IgG1 Fc fusion, AcroBiosystems; chain copies: heterodimer 1:1 (inferred); label: 5'-biotin-TEG
Protocol: as §1, §2

T2 sequence (P07766 23-126, chain 1 of 2): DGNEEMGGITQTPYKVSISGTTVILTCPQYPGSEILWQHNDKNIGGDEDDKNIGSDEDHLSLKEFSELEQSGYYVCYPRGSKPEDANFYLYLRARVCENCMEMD
T2 sequence (P09693 23-116, chain 2 of 2): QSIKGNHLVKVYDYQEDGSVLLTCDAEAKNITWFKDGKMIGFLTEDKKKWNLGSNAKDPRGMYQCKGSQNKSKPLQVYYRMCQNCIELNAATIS
T3 sequence (P07766 23-126, stated change not applied, chain 1 of 2): as the sequence (P07766 23-126, chain 1 of 2) above
T3 sequence (P04234 22-105, stated change not applied, chain 2 of 2): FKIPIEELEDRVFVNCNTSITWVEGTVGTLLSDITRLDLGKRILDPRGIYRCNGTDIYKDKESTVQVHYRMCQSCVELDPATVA

GGGTTTGGCATCGGGTCTGGC (ssDNA, 5'-HEG, 3'-3' dT) [CELTIC_core_40t]: no binding (IgG1 Fc (counter target) [1]).

With GAGGGGTTTGGCATCGGGCCTGGCGCCATTCAAGCTATGC (ssDNA) [CELTIC_2s] the Kd [2] was 627 nM, the Kd [3] was 260 nM and the binding result (IgG1 Fc (counter target) [4]) was “no binding”.

In the case of TTTCCGGGTGGGGGTTTGGCACCGGGCCTGGCGCAGGGATTCG (ssDNA) [CELTIC_1s], the binding result (IgG1 Fc (counter target) [5]) is reported as “no binding”, the Kd [6] is reported as 125 nM and the Kd [7] is reported as 53 nM.

CGACCACAGGGGTTTGGCTTCGGGACTGGCGGTGGGCACT (ssDNA) [CELTIC_22s]: no binding (IgG1 Fc (counter target) [8]).

In the case of GAUGAUAUCUUUAAUAUCAAUUGCAGCGAUUCUUGUUUGAGAAUAAAC (ssRNA, 2'-F pyrimidines) [ARACD3-3130001], the Kd [9] is reported as 332 nM, the binding result (IgG1 Fc (counter target) [10]) is reported as “no binding” and the binding result [11] is reported as “no binding”.

— patent US20220251562, “Anti-CD3 Aptamers for Use in Cell Targeting and Labeling” (Ixaka France, published 2022)
